{"source": "patent US20090142273A1", "about": "“Activatable cest MRI agent” (CASE WESTERN RESERVE UNIVERSITY, priority 2006, published 2009)", "key": {"[1]": {"molecular_target": "T1, caspase-3 (Homo sapiens, UniProt P42574)", "T1 sequence (P42574 29-175 limits assumed)": "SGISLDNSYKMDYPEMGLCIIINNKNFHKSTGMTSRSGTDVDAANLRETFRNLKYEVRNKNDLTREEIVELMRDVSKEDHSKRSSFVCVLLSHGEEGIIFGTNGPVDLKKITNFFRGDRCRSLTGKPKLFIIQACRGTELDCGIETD", "T1 sequence (P42574 176-277 limits assumed)": "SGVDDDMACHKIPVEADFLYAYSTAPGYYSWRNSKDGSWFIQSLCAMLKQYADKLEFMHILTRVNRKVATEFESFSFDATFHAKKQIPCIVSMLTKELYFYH", "experiment": "[…] spectra of DEVD-(Tm-DOTA) amide before and after adding caspase-3", "type": "biochemical", "excerpt": "In one embodiment, the caspase-3 substrate DEVD (Asp-Glu-Val-Asp) was elongated using the amino group on one side arm of lanthanide ligand anchored on the polymer support. FIG. 9 illustrates the conversion of the DEVD-(Ln-DOTA) 90 to amino-(Ln-DOTA) 92 through cleavage by caspase-3. […] Accordingly, the enzymatic activity of caspase-3 can be detected by the change in […] effect caused by this biotransformation.\nFIG. 16 illustrates […] spectra 998 and MR parametric map 999 of DEVD-(Tm-DOTA) amide 155 before and after adding caspase-3. […] spectra were acquired at 37° C. and pH 7.4 with a continuous wave saturation pulse applied at 31 μT for 4 seconds. The deconvoluted […] spectrum of the product after reaction, showing a […] effect at +8 ppm, is also shown. MR images were acquired at 37° C. and pH 7.4 with a Bruker Biopsin 9.4 T MR scanner. A MSME T1 method was used with TR/TE=1623/10.9 ms and a train of Gaussian-shaped saturation pulses applied at 25 μT for 1.106 s, and with saturation offsets at −51 ppm and +51 ppm. The parametric map was obtained by subtracting the MR image with a saturation offset at −51 ppm from the MR image with saturation offset at +51 ppm. The magnitude of the scale of the original MR images was used as the scale for this parametric map, to properly represent the difference in MRI contrast obtained with different saturation offsets. The […] spectrum of 155 (25 mM, pH 7.4) was recorded by applying selective saturation in 1 ppm increments from +100 ppm to −100 ppm. A […] effect was detected at −51 ppm, which was assigned to the amide most proximal to the lanthanide ion in 155, based on identical results obtained from a similar compound, Tm3^+-DOTAMGly. After 48 nM of caspase-3 was added and the mixture was incubated at 37° C. and pH 7.4 for 1 hour, the […] effect at −51 ppm was decreased and an asymmetrical shape in the […] spectrum was observed near water. This asymmetry was analyzed by deconvolution to show a […] effect at +8 ppm."}, "[2]": {"molecular_target": "T1, caspase-3", "experiment": "MR parametric map of DEVD-(Tm-DOTA) amide before and after reaction with caspase-3", "type": "biochemical", "details": "saturation at −51 ppm vs +51 ppm, 9.4 T, 37° C., pH 7.4", "protocol": "FIG. 16 illustrates […] spectra 998 and MR parametric map 999 of DEVD-(Tm-DOTA) amide 155 before and after adding caspase-3. […] spectra were acquired at 37° C. and pH 7.4 with a continuous wave saturation pulse applied at 31 μT for 4 seconds. The deconvoluted […] spectrum of the product after reaction, showing a […] effect at +8 ppm, is also shown. MR images were acquired at 37° C. and pH 7.4 with a Bruker Biopsin 9.4 T MR scanner. A MSME T1 method was used with TR/TE=1623/10.9 ms and a train of Gaussian-shaped saturation pulses applied at 25 μT for 1.106 s, and with saturation offsets at −51 ppm and +51 ppm. The parametric map was obtained by subtracting the MR image with a saturation offset at −51 ppm from the MR image with saturation offset at +51 ppm. The magnitude of the scale of the original MR images was used as the scale for this parametric map, to properly represent the difference in MRI contrast obtained with different saturation offsets. The […] spectrum of 155 (25 mM, pH 7.4) was recorded by applying selective saturation in 1 ppm increments from +100 ppm to −100 ppm. A […] effect was detected at −51 ppm, which was assigned to the amide most proximal to the lanthanide ion in 155, based on identical results obtained from a similar compound, Tm3^+-DOTAMGly. […] This asymmetry was analyzed by deconvolution to show a […] effect at +8 ppm. […]"}}, "data": [{"substance": "DEVD-(Tm-DOTA) amide [compound 155]", "values": [{"measurement": "change of PARACEST effect at −51 ppm after caspase-3", "setting": "[1]; 48 nM caspase-3, 37° C., pH 7.4, 1 hour", "value": "decreased"}, {"measurement": "PARACEST effect after cleavage by caspase-3 (free amine)", "setting": "[1]; 48 nM caspase-3, 37° C., pH 7.4, 1 hour, by deconvolution", "value": "+8 ppm"}, {"measurement": "PARACEST effect, MR saturation frequency of amide", "setting": "[1]; before caspase-3, 25 mM, pH 7.4, 37° C., 31 μT for 4 seconds", "value": "−51", "unit": "ppm"}, {"measurement": "change in water MR signal after reaction with caspase-3", "setting": "[2]", "value": "no significant change"}, {"measurement": "decrease in water MR signal due to the PARACEST effect before the enzymatic reaction", "setting": "[2]", "value": "~14.5", "unit": "%"}]}]}
